Laboratory results reported in patent US20240010722A1 (published 2024).
Changes are numbered by the printed parent chain.

T1: human MAdCAM (human, UniProt Q13477 19-317, limits assumed)
T1 construct: also called huMAdCAM; human MAdCAM-1
T1 sequence (looked up): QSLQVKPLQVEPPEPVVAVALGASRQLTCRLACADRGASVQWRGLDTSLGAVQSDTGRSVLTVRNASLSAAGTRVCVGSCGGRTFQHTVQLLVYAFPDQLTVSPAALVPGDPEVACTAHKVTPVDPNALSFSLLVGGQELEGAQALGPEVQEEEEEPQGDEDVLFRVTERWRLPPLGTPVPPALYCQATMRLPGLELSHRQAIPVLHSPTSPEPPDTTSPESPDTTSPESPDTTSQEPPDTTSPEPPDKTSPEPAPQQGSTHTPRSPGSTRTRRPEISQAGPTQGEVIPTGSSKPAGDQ

T2: mouse MAdCAM (mouse, UniProt Q61826 22-365, limits assumed)
T2 construct: also called mouse MAdCAM-1; muMAdCAM
T2 sequence (looked up): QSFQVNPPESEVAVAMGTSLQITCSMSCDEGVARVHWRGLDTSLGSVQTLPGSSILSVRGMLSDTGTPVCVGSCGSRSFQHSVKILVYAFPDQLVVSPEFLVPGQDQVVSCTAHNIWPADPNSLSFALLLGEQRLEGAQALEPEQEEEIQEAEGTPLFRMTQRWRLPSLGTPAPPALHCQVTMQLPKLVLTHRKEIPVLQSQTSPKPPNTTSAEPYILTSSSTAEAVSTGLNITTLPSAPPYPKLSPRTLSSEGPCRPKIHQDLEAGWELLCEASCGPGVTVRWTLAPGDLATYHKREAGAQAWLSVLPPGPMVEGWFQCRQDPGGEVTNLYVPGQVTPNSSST

B1: PMAB15 (bispecific antibody, human IgG1, kappa)
heavy: EVQLLESGGGLVQPGGSLRLSCAASGFTFSSYDMSWVRQAPGKGLEWVSGITISGGSTYYADSVKGRFTISRDNSKNTLYLQMNSLRAEDTAVYYCARGRGGSGWLDYWGQGTLVTVSSASTKGPSVFPLAPSSKSTSGGTAALGCLVKDYFPEPVTVSWNSGALTSGVHTFPAVLQSSGLYSLSSVVTVPSSSLGTQTYICNVNHKPSNTKVDKKVEPKSCDKTHTCPPCPAPEAAGAPSVFLFPPKPKDTLMISRTPEVTCVVVDVSHEDPEVKFNWYVDGVEVHNAKTKPREEQYNSTYRVVSVLTVLHQDWLNGKEYKCKVSNKALPAPIEKTISKAKGQPREPQVYTLPPSREEMTKNQVSLTCLVKGFYPSDIAVEWESNGQPENNYKTTPPVLDSDGSFFLYSKLTVDKSRWQQGNVFSCSVMHEALHNHYTQKSLSLSPGGGGGSGGGGSGGGGSEVQLLESGGGLVQPGGSLRLSCAASGFTFSSYWMHWVRQAPGKGLEWVSAISGSGGSTYYADSVKGRFTISRDNSKNTLYLQMNSLRAEDTAVYYCARDRPYYYDMDVWGKGTTVTVSSGGGGSGGGGSGGGGSGGGGSDIQMTQSPSSLSASVGDRVTITCRASQSISSSLAWYQQKPGKAPKLLIYAASSLQSGVPSRFSGSGSGTDFTLTISSLQPEDFATYYCQQYKSYPVTFGQGTKVEIK
light: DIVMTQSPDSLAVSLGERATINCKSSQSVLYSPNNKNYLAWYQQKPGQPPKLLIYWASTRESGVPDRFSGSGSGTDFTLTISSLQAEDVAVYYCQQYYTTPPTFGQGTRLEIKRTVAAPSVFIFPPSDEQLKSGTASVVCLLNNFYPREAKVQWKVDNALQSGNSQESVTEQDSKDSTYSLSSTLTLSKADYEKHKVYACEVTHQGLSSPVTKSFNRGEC
B2: PMAB17 (bispecific antibody, human IgG1, kappa)
heavy: B1 heavy with L114D, Y566G, D568Y
light: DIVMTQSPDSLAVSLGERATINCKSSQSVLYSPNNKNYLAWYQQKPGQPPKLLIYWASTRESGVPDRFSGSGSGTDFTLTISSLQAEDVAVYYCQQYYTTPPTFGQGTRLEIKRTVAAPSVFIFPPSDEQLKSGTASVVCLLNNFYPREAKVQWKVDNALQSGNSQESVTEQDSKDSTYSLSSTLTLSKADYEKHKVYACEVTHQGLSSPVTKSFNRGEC
B3: PMAB28 (bispecific antibody, human IgG1, kappa)
heavy: EVQLLESGGGLVQPGGSLRLSCAASGFTFSNSDMSWVRQAPGKGLEWVSGITISGGSTYYADSVKGRFTISRDNSKNTLYLQMNSLRAEDTAVYYCARGRGGSGWLDYWGQGTLVTVSSASTKGPSVFPLAPSSKSTSGGTAALGCLVKDYFPEPVTVSWNSGALTSGVHTFPAVLQSSGLYSLSSVVTVPSSSLGTQTYICNVNHKPSNTKVDKKVEPKSCDKTHTCPPCPAPEAAGAPSVFLFPPKPKDTLMISRTPEVTCVVVDVSHEDPEVKFNWYVDGVEVHNAKTKPREEQYNSTYRVVSVLTVLHQDWLNGKEYKCKVSNKALPAPIEKTISKAKGQPREPQVYTLPPSREEMTKNQVSLTCLVKGFYPSDIAVEWESNGQPENNYKTTPPVLDSDGSFFLYSKLTVDKSRWQQGNVFSCSVMHEALHNHYTQKSLSLSPGGGGGSGGGGSGGGGSEVQLLESGGGLVQPGGSLRLSCAASGFTFSDFWMHWVRQAPGKGLEWISYISGDSGYTYYADSVKGRFTISRDNSKNTLYLQMNSLRAEDTAVYYCARDRPYYYYMDVWGKGTTVTVSSGGGGSGGGGSGGGGSGGGGSDIQMTQSPSSLSASVGDRVTITCRASQSVSRSLAWYQQKPGKAPKLLIYAASSLQSGVPSRFSGSGSGTDFTLTISSLQPEDFATYYCQQYKSYPVTFGQGTKVEIK
light: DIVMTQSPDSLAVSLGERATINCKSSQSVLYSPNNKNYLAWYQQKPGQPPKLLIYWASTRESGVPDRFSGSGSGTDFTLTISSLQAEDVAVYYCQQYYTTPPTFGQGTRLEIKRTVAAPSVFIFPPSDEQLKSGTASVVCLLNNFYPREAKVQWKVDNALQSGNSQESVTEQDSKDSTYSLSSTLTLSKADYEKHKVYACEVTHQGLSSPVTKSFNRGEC
B4: PMAB16 (bispecific antibody, human IgG1, kappa)
heavy: B1 heavy with A513Y, S520Y, Y522N
light: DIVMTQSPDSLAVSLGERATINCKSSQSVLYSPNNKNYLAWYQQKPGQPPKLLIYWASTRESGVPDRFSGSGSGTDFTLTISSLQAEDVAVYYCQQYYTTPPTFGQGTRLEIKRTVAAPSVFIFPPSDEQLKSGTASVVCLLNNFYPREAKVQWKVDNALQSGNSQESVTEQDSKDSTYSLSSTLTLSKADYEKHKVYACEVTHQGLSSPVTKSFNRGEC
B5: PMAB42 (bispecific antibody, human IgG1, kappa)
heavy: B3 heavy with Y522N, Y696T
light: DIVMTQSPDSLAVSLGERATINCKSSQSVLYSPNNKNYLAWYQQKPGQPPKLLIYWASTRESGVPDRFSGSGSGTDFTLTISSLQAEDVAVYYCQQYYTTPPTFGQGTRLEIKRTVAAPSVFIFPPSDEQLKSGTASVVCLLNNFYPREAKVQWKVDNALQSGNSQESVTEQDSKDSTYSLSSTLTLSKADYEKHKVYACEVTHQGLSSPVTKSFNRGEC
B6: PMAB25 (bispecific antibody, human IgG1, kappa)
heavy: B3 heavy with D517S, Y522N
light: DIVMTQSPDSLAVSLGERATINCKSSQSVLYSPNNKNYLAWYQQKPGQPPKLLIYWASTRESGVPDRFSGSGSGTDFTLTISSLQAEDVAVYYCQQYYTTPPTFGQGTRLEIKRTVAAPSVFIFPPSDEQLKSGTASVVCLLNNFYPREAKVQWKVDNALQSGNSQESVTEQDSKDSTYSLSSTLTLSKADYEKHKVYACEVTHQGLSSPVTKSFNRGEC
B7: PMAB36 (bispecific antibody, human IgG1, kappa)
heavy: B3 heavy with Y522N, V631I
light: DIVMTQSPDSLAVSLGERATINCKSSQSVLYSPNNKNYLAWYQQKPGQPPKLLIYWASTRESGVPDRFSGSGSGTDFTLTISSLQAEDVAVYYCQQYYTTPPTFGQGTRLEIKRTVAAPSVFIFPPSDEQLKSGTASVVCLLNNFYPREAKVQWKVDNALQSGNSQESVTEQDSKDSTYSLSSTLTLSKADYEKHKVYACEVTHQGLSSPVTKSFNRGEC
B8: PMAB56 (bispecific antibody, human IgG1, kappa)
heavy: B1 heavy with L114T, A513Y, S520Y, Y522N, M569L
light: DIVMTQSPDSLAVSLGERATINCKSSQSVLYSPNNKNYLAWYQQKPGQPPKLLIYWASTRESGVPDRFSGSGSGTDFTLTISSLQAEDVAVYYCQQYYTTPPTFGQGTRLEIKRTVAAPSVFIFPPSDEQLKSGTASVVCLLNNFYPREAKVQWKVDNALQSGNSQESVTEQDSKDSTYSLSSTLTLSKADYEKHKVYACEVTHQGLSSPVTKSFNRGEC
B9: PMAB27 (bispecific antibody, human IgG1, kappa)
heavy: B3 heavy with Y520S, Y522N
light: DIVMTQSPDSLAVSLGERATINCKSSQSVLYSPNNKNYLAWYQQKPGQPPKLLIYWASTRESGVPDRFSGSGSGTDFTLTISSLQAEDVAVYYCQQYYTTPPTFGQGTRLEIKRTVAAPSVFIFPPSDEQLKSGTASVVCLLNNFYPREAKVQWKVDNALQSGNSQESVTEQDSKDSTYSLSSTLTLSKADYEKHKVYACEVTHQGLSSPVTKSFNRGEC
B10: PMAB53 (bispecific antibody, human IgG1, kappa)
heavy: B1 heavy with L114T, A513Y, S520Y, Y522N, M569I
light: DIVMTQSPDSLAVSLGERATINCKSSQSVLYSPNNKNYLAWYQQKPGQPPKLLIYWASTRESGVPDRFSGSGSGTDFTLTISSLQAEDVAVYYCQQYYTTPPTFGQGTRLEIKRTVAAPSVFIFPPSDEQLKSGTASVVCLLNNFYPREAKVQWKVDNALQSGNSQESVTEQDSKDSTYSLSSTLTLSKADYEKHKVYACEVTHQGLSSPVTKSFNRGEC
B11: PMAB37 (bispecific antibody, human IgG1, kappa)
heavy: B3 heavy with Y522N, R633S
light: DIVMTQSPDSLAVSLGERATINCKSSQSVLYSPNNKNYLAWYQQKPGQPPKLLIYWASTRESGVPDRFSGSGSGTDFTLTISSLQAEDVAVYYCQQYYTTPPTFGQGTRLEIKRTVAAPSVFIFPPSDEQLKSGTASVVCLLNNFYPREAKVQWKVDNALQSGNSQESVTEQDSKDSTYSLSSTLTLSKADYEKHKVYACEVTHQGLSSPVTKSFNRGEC
B12: PMAB26 (bispecific antibody, human IgG1, kappa)
heavy: B3 heavy with S518G, Y522N
light: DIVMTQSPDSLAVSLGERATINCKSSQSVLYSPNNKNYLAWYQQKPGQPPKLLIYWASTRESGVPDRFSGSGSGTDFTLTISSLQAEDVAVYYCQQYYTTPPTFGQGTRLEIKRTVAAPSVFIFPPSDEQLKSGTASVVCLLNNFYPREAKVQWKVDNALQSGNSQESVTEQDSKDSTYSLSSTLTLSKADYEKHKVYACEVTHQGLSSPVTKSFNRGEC
B13: PMAB18 (bispecific antibody, human IgG1, kappa)
heavy: QVQLVQSGAEVKKPGASVKVSCKASGYSFTTYYMHWVRQAPGQGLEWMGIIAPSGGSTSYAQKFQGRVTMTRDTSTSTVYMELSSLRSEDTAVYYCASGWVYWGQGTLVTVSSASTKGPSVFPLAPSSKSTSGGTAALGCLVKDYFPEPVTVSWNSGALTSGVHTFPAVLQSSGLYSLSSVVTVPSSSLGTQTYICNVNHKPSNTKVDKKVEPKSCDKTHTCPPCPAPEAAGAPSVFLFPPKPKDTLMISRTPEVTCVVVDVSHEDPEVKFNWYVDGVEVHNAKTKPREEQYNSTYRVVSVLTVLHQDWLNGKEYKCKVSNKALPAPIEKTISKAKGQPREPQVYTLPPSREEMTKNQVSLTCLVKGFYPSDIAVEWESNGQPENNYKTTPPVLDSDGSFFLYSKLTVDKSRWQQGNVFSCSVMHEALHNHYTQKSLSLSPGGGGGSGGGGSGGGGSEVQLLESGGGLVQPGGSLRLSCAASGFTFSSYWMHWVRQAPGKGLEWVSYISGSGGYTNYADSVKGRFTISRDNSKNTLYLQMNSLRAEDTAVYYCARDRPYYYDMDVWGKGTTVTVSSGGGGSGGGGSGGGGSGGGGSDIQMTQSPSSLSASVGDRVTITCRASQSISSSLAWYQQKPGKAPKLLIYAASSLQSGVPSRFSGSGSGTDFTLTISSLQPEDFATYYCQQYKSYPVTFGQGTKVEIK
light: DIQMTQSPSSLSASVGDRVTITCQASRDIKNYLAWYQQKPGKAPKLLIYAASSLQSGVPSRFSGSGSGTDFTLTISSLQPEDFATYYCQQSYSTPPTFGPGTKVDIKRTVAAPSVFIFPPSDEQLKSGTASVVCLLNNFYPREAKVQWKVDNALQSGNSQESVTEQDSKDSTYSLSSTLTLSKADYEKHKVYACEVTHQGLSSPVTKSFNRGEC

Experiments:
human MAdCAM [1] = molecular target: T1, human MAdCAM; assay: BLI (Octet)
human MAdCAM [2] = molecular target: T1, human MAdCAM; assay: BLI (Octet), binder on AHC tips
Method in brief: (§1)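 Kinetic rates and the dissociation constant come from a global one-to-one fit, performed in the Octet data analysis software, of binding measured on an Octet96 RED with anti-human IgG Fc biosensors. Test article at 10 μg/mL in assay buffer was captured on the tips for 240 s. MAdCAM-1, serially diluted over seven points from 200 nM down to 3.13 nM, then associated for 120 s before 120 s of dissociation in assay buffer.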

mouse MAdCAM [3] = molecular target: T2, mouse MAdCAM; assay: BLI (Octet), binder on AHC tips
Method in brief: as §1

mouse MAdCAM [4] = molecular target: T2, mouse MAdCAM; assay: BLI (Octet)
cyno MAdCAM = molecular target: T3, cyno MAdCAM (cynomolgus); assay: BLI (Octet)
T3 construct: also called cynomolgus MAdCAM

| Kd (human MAdCAM [1]) | koff (human MAdCAM [1]) | kon (human MAdCAM [1]) | response (human MAdCAM [1]) | Kd (human MAdCAM [2]) | koff (human MAdCAM [2]) | kon (human MAdCAM [2]) | Kd (mouse MAdCAM [3]) | koff (mouse MAdCAM [3]) | kon (mouse MAdCAM [3]) | response (mouse MAdCAM [3]) | Kd (mouse MAdCAM [4]) | koff (mouse MAdCAM [4]) | kon (mouse MAdCAM [4]) | response (mouse MAdCAM [4]) | Kd (cyno MAdCAM) | koff (cyno MAdCAM) | kon (cyno MAdCAM) | response (cyno MAdCAM) | Binder |
| --- | --- | --- | --- | --- | --- | --- | --- | --- | --- | --- | --- | --- | --- | --- | --- | --- | --- | --- | --- |
| 73.1 nM | 0.0839 s⁻¹ | 1.15e+06 M⁻¹ s⁻¹ | 0.0655 | – | – | – | – | – | – | – | – | – | – | – | – | – | – | – | B1 |
| 17.1 nM | 0.0636 s⁻¹ | 3.73e+06 M⁻¹ s⁻¹ | 0.0416 | – | – | – | – | – | – | – | – | – | – | – | – | – | – | – | B2 |
| – | – | – | – | 86.2 nM | 0.0902 s⁻¹ | 1.05e+06 M⁻¹ s⁻¹ | 103 nM | 0.00886 s⁻¹ | 85900 M⁻¹ s⁻¹ | 0.083 | – | – | – | – | – | – | – | – | B3 |
| 134 nM | 0.0631 s⁻¹ | 472000 M⁻¹ s⁻¹ | 0.186 | – | – | – | – | – | – | – | 334 nM | 0.0828 s⁻¹ | 248000 M⁻¹ s⁻¹ | 0.0407 | – | – | – | – | B4 |
| – | – | – | – | 395 nM | 0.114 s⁻¹ | 288000 M⁻¹ s⁻¹ | 105 nM | 0.017 s⁻¹ | 162000 M⁻¹ s⁻¹ | 0.129 | – | – | – | – | – | – | – | – | B5 |
| – | – | – | – | 43.6 nM | 0.0212 s⁻¹ | 486000 M⁻¹ s⁻¹ | 115 nM | 0.012 s⁻¹ | 105000 M⁻¹ s⁻¹ | 0.133 | – | – | – | – | – | – | – | – | B6 |
| – | – | – | – | 109 nM | 0.0325 s⁻¹ | 298000 M⁻¹ s⁻¹ | 206 nM | 0.0251 s⁻¹ | 122000 M⁻¹ s⁻¹ | 0.169 | – | – | – | – | – | – | – | – | B7 |
| 208 nM | 0.00491 s⁻¹ | 23600 M⁻¹ s⁻¹ | – | – | – | – | – | – | – | – | 161 nM | 0.00147 s⁻¹ | 9120 M⁻¹ s⁻¹ | – | 96.5 nM | 0.0591 s⁻¹ | 612000 M⁻¹ s⁻¹ | – | B8 |
| – | – | – | – | 92.2 nM | 0.128 s⁻¹ | – | 1020 nM | 0.00469 s⁻¹ | 4580 M⁻¹ s⁻¹ | 0.0278 | – | – | – | – | – | – | – | – | B9 |
| 49.7 nM | 0.000716 s⁻¹ | 14400 M⁻¹ s⁻¹ | – | – | – | – | – | – | – | – | 1740 nM | 0.217 s⁻¹ | 125000 M⁻¹ s⁻¹ | – | 379 nM | 0.0217 s⁻¹ | 57100 M⁻¹ s⁻¹ | – | B10 |
| – | – | – | – | 285 nM | 0.0838 s⁻¹ | 294000 M⁻¹ s⁻¹ | 176 nM | 0.0178 s⁻¹ | 101000 M⁻¹ s⁻¹ | 0.152 | – | – | – | – | – | – | – | – | B11 |
| – | – | – | – | 138 nM | 0.0658 s⁻¹ | 476000 M⁻¹ s⁻¹ | 134 nM | 0.0118 s⁻¹ | 87900 M⁻¹ s⁻¹ | 0.132 | – | – | – | – | – | – | – | – | B12 |
| 198 nM | 0.0511 s⁻¹ | 259000 M⁻¹ s⁻¹ | 0.184 | – | – | – | – | – | – | – | 201 nM | 0.0776 s⁻¹ | 386000 M⁻¹ s⁻¹ | – | 22.6 nM | 0.0102 s⁻¹ | 453000 M⁻¹ s⁻¹ | 0.145 | B13 |
